This passage reports FRET efficiency results from PMC3323627.

This assay has as its target Tula virus (TULV) nonstructural protein NSs, strain Lodz, in infected cells (Tula virus, strain Lodz). Put plainly: FRET or BRET. Background: Bioluminescence resonance energy transfer reports proximity on the nanometre scale.

Substance “ACBD3 protein, endogenous in common vole (Microtus arvalis) kidney cells (natural protein)” yielded an FRET efficiency of 20%.
